This experiment concerns the target SARS-CoV S-6P (SARS-CoV, strain , UniProt P59594, stabilised). Description: SPR. For orientation: Surface plasmon resonance follows binding to a sensor surface in real time, without labels.

Data on one molecule can be found in paper PMC11251093 (iScience, 2024).

B1: 6D6 (antibody, V domains shown)
VH: EVQLQQSGAELVKPGASVKLSCTTSGFNIIDTYMHWVKQRPEEGLEWIGGIDPVNGNSEYDPKFQDKATITADTSSNTAYLHLSRLTSEDTAVYYCASAHYYGSSSSFPYWGQGTDLVTVS
VL: DIVMTQSQKFMSTSVGDRVSVTCKASQNVGTHVAWYQQKPGQSPKALIYSASYRYSGVPDRFTGSGVGTDFTLTITNVQSEDLAEYFCQQYNSYFTFGSGTKLEIK
Turning to B1, the binding result is recorded as “binds”.
